Residue numbers refer to the chain shown, from its start.

The record followed here is patent US20240059758A1 (published 2024).

To fix the notation:
B1: STE70-1E12 (antibody, V domains shown)
VH: QMQLVQSGAEVKKPGASVKVSCKASGYTFTGYYMHWVRQAPGQGLEWMGRINPNSGGTNYAQKFQGRVTMTRDTSTSTAYMELSRLRSDDTAVYYCVRDGYNFNNWFDPWGQGTLVTVSS
VL: NFMLTQPHSVSGSPGETITISCTGSGGSIASNYVQWYRQRPGSAPTIVIYEDTQRPSGVPDRFSGSIDSSSNSASLTISGLKTEDEADYYCQSSESTNHVMFGGGSKLTVL
B2: STE72-4E12 (antibody, V domains shown)
VH: QVQLVQSGAEVKKPGASVKVSCKASGYTFTSYYMHWVRQAPGQGLEWMGIINPSGGSTSYAQKFQGRVTMTRDTSTSTVYMELSSLRSEDTAVYYCARDLSGGLDYWGQGTLVTVSS
VL: ETTLTQSPATLSVSPGERVTLACRAGQTISSKLAWYRQKPGQAPSLLIYDASTRATGVPARFSGSGSGTEFTLTISSLQSEDFAVYYCQQYSDWPPTFGQGTKVEIK
B3: STE72-8A2 (antibody, V domains shown)
VH: QVQLVQSGAEVKKPGASVKVSCKASGYTFTSYGISWVRQAPGQGLEWMGWISAYNGNTNYAQKLQGRVTMTTDTSTSTAYMELRSLRSDDTAVYYCARFFYDSSGYSTDYWGQGTLVTVSS
VL: not shown
B4: STE72-8A6 (antibody, V domains shown)
VH: B3 VH
VL: DIVMTQSPSTLSASVGDRVTISCRASQNIGTWLAWYQQKPGKAPKLLISKASSLESGVPSRFSGSGSGTDFTLTISSLQPDDFATYYCQQYDSYLFTFGQGTKLEIR
B5: STE72-2G4 (antibody, V domains shown)
VH: B3 VH
VL: ETTLTQSPAFMSVTPGDRAILSCRASQSVDSHLAWYHQKPGQPPRLLIYGASTRATGIPARFSGSRSGTEFTLTISGLQSEDLGVYYCQQYASWPPGYNFGQGTKLEIK
B6: STE72-1B6 (antibody, V domains shown)
VH: QVKLVQSGGGLVQPGGSLRLSCAASGFTFSSYAMSWVRQAPGKGLEWVSGISGSGGSTYYADSVKGRFTISRDNSKNTLYLQVNSLRAEDTAVYYCAKAPYGDFRGLWYFDYWGQGTLVTVSS
VL: DIVMTQSPFSVSASVGDRVTISCRASQDIRSWLAWYQQKPGKAPQLLIYDASSLQSGVPSRFSGSGSGTDFTLTISSLQPEDFATYYCQQADSVPLTFGGGTKVEIQ
B7: STE73-6B10 (antibody, V domains shown)
VH: QVQLVQSGAEVKKPGASVKVSCKASGYTFTSYGISWVRQAPGQGLEWMGWINPNSGGTNYAQKFQGRVTMTRDTSISTAYMELSRLRSDDTAVYYCARDRLRYGDSGSYYYYGMDVWGQGTTVTVSS
VL: QSALTQPRSVSGSPGQSVTISCTGTSSDVGGYNYVSWYQQHPGKAPKLLISEVTRRPSGVPDRFSGSKSGNTASLTVSGLQTEDEADYYCGSYAGSNTWVFGGGTKLTVL
B8: STE73-2C2 (antibody, V domains shown)
VH: QVQLVESGGGLVQPGGSLRLSCAASGITVSSNYMSWVRQAPGKGLEWVSVIYSGGSTFYADSVKGRFTISRDNSKNTLYLQMNSLRAEDTGVYYCARGHDNLDYWGQGTLVTVSS
VL: LPVLTQPHSVSESPGKTVIISCTGSSDSIASNYVQWYQQRPGSAPTTVIYEDNKRPSGVPDRFSGSTDSSSNSASLTISGLKTEDEAEYYCQSYDSNNHWVFGGGTKLTVL
B9: STE73-2E9 (antibody, V domains shown)
VH: QVQLVQSGAEVKKPGASVKVSCKASGYTFTSYGISWVRQAPGQGLEWMGWISAYNGNTNYAQKLQGRVTMTTDTSTSTAYMELRSLRSDDTAVYYCARGKFDYWGQGTLVTVSS
VL: QSVLTQPPSVSEAPSQRVTISCSGSSSNIGNNAVNWYQQLPGKAPKLLIYYDDVLPSGVSDRFSGSKSGTSASLAISGLQSGDEADYYCAAWDDSLSGVVFGGGTKLTVL
B10: STE73-2G8 (antibody, V domains shown)
VH: QVQLVQSGGGLVKPGGSLRLSCAASGITVSSNYMSWVRQAPGKGLEWVSILYSGGTTFYTDSVKGRFTISRDNSKNTLHLQMNSLRAEDTAVYYCARWSGTYYDYWGQGTLVTVSS
VL: SSELTQDPAVSVALGQTVRITCQGDSLRSYYASWYQQKPGQAPVLVIYGKNNRPSGIPDRFSGSSSGNTASLTITGAQAEDEADYYCNSRDSTNDPVLFGAGTKLTVL
B11: STE73-2B2 (antibody, V domains shown)
VH: QVQLVQSGAEVKKPGASVKVSCKASGYTFTGYYMHWVRQAPGQGLEWMGWINPNSGGTNYAQKFQGRVTITRDTSASTAYMELSSLRSEDTAVYYCARVSGWYFGAFDIWGQGTMVTVSS
VL: LPVLTQPHSLSESPGKTVNISCTGSSGSIASNYVQWYQQRPGSAPTTVIYEDSHRPSGVPDRFSGSIDSSSNSASLSISGLKTEDEADYYCQSYDSSNNQWVFGGGTKLTVL
B12: STE73-6C1 (antibody, V domains shown)
VH: QVQLVQSGGGVVQPGRSLRLSCAASGFTFSSYAMHWVRQAPGKGLEWVAVISYDGSNKYYADSVKGRFTISRDNSKNTLYLQMNSLRAEDTAVYYCARSYVGGMDVWGQGTTVTVSS
VL: QLVLTQSPSVSGAPGQSVTISCTGTDSNIGAGYNVHWYQQLPGAAPKLIISYTDNRPSGVPDRFSGSKSGTSASLAITGLQAEDEADYYCQSSDRTLVGSLFGTGTKVTVL
B13: STE73-9G3 (antibody, V domains shown)
VH: QVQLQESGGGLVQPGGSLRLSCAASGFTFSSYAMSWVRQAPGKGLEWVSAISGSGGSTYYADSVKGRFTISRDNSKNTLYLQMNSLRAEDTAVYYCARDLVLGSGSSNDWGRGTLVTVSS
VL: B12 VL with L2P, S7P

The first assay has as its target T1, receptor binding domain (RBD) of the S1-subunit of SARS-CoV-2 glycoprotein S (UniProt P0DTC2 319-541). Briefly: flow.
As a reminder, the IC50 is the concentration that inhibits the measured activity by half. Higher therefore signals a need for much substance. B1 yielded a half-inhibitory concentration (IC50) of 3.2 nM.

B2 returned an IC50 of 3 nM.

The molecule B3 registered an IC50 of 1.5 nM.

As for B4, the IC50 was 2.8 nM.

With B5, the IC50 is 3.7 nM.

For B6, the half-inhibitory concentration (IC50) amounted to 4.8 nM.

The target in another assay is T1, receptor binding domain (RBD) of the …. The assay is described as follows: flow. This is another data set of the same source.
In the case of B7, the IC50 is 73 nM.

On to B8, for which the IC50 was 3 nM.

On to B9, for which the half-maximal inhibitory concentration (IC50) came out at 3.4 nM.

In turn, B10 came in with an IC50 of 2.8 nM.

Regarding B11, the IC50 came out at 1.7 nM.

B12 displayed an IC50 of 4.1 nM.

For the molecule B13, the IC50 worked out at 3.4 nM.

The next assay concerns the target T2, RBD-mFc (UniProt P0DTC2 319-591). The assay is described as follows: ELISA. For orientation: ELISA stands for enzyme-linked immunosorbent assay.
In general, EC50 refers to the concentration giving half of the maximal effect. Molecule B1 came in with an EC50 of 1.1 nM.

For the molecule B2, the EC50 came to 4.7 nM.

Regarding B3, the EC50 amounted to 1.5 nM.

In turn, B4 returned an EC50 of 1.5 nM.

In turn, B5 showed an EC50 of 0.7 nM.

B6 registered an EC50 of 1.6 nM.

The next assay deals with S1- (UniProt P0DTC2 14-1210). Briefly: ELISA.
In the case of B2, a half-maximal response (EC50) required 11.6 nM.

Another assay has as its target T3, S1-mFc (UniProt P0DTC2 14-694). Briefly: ELISA.
As for B1, the 50% effective concentration (EC50) stood at 1.5 nM.

Regarding B2, a half-maximal effect (EC50) was put at 10.4 nM.

As to B3, the midpoint of the response, the EC50, lay at 2.3 nM.

With B4, the EC50 was found to be 2.9 nM.

In turn, B5 had an EC50 of 0.9 nM.

For the molecule B6, a half-maximal response (EC50) required 2.2 nM.

Another assay has as its target T2, RBD-mFc. The assay is described as follows: ELISA. The source holds these as a separate data set.
As for B7, the EC50 was 17.3 nM.

Molecule B8 came in with an EC50 of 9.6 nM.

The molecule B9 came in with a 50% effective concentration (EC50) of 0.7 nM.

With B10, the EC50 stood at 0.7 nM.

As to B11, the EC50 came out at 0.5 nM.

Regarding B12, it took 2 nM to reach a half-maximal effect (EC50).

Turning to B13, the midpoint of the response, the EC50, lay at 1.4 nM.

The next assay addresses T3, S1-mFc. Briefly: ELISA. This is another data set of the same source.
B7 displayed an EC50 of 15.3 nM.

On to B8, for which the EC50 stood at 17.9 nM.

On to B9, for which a half-maximal response (EC50) required 0.6 nM.

In turn, B10 had an EC50 of 1 nM.

On to B11, for which it took 0.8 nM to reach a half-maximal effect (EC50).

Consider B12, for which it took 2.8 nM to reach a half-maximal effect (EC50).

The molecule B13 gave an EC50 of 1.6 nM.
